PMC10397247
Where two headings read alike, the source gives them in different places. One block for each binder: values may come before it.

Experiments:
[1] = target: T1, 4H906-AA; assay: two-hybrid library CCmax;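 also: natural log of median RNA to DNA barcode read ratio; higher means stronger binding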
T1 chain: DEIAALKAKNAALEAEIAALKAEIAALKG

[2] = target: T2, 4H993-AA; assay: two-hybrid library CCmax;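 also: natural log of median RNA to DNA barcode read ratio; higher means stronger binding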
T2 chain: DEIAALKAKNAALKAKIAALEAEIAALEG

[3] = target: T3, 4H605-AA; assay: two-hybrid library CCmax;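 also: natural log of median RNA to DNA barcode read ratio; higher means stronger binding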
T3 chain: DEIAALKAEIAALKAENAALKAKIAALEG

[4] = target: T4, 4H678-AA; assay: two-hybrid library CCmax;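 also: natural log of median RNA to DNA barcode read ratio; higher means stronger binding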
T4 chain: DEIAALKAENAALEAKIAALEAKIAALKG

[5] = target: T5, 4H717-AA; assay: two-hybrid library CCmax; conditions: mean of both orientations;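 also: natural log of median RNA to DNA barcode read ratio; higher means stronger binding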
T5 chain: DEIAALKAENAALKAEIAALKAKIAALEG

[6] = target: T6, 4H780-AA; assay: two-hybrid library CCmax;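 also: natural log of median RNA to DNA barcode read ratio; higher means stronger binding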
T6 chain: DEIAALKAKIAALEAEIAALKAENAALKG

[7] = target: T7, 4H794-AA; assay: two-hybrid library CCmax
T7 chain: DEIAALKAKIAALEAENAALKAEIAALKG

[8] = target: T8, 4H881-AA; assay: two-hybrid library CCmax
T8 chain: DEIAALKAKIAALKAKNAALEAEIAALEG

[9] = target: T9, 4H570-AA; assay: two-hybrid library CCmax
T9 chain: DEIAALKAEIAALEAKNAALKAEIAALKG

[10] = target: T10, 4H629-AA; assay: two-hybrid library CCmax
T10 chain: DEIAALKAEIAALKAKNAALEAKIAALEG

[11] = target: T11, 4H710-AA; assay: two-hybrid library CCmax
T11 chain: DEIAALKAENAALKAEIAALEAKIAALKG

[12] = target: T12, 4H745-AA; assay: two-hybrid library CCmax
T12 chain: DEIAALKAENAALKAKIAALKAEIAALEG

[13] = target: T13, 4H797-AA; assay: two-hybrid library CCmax; conditions: mean of both orientations
T13 chain: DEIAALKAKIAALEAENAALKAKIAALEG

[14] = target: T14, 4H850-AA; assay: two-hybrid library CCmax
T14 chain: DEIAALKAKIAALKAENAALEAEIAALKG

[15] = target: T15, 4H891-AA; assay: two-hybrid library CCmax
T15 chain: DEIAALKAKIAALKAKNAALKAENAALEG

[16] = target: T16, 4H909-AA; assay: two-hybrid library CCmax
T16 chain: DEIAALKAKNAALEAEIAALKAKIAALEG

[17] = target: T17, 4H930-AA; assay: two-hybrid library CCmax
T17 chain: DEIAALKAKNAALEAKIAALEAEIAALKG

[18] = target: T18, 4H94-AA; assay: two-hybrid library CCmax
T18 chain: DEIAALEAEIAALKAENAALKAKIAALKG

[19] = target: T19, 4H906-bA; assay: two-hybrid library CCNG1
T19 chain: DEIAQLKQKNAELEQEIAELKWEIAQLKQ

[20] = target: T20, 4H918-bN; assay: two-hybrid library CCNG1
T20 chain: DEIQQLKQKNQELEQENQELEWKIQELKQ

[21] = target: T21, 4H536-AA; assay: two-hybrid library CCmax
T21 chain: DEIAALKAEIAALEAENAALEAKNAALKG

[22] = target: T22, 4H971-AA; assay: two-hybrid library CCmax
T22 chain: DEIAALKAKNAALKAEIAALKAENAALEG

[23] = target: T23, 4H458-AA; assay: two-hybrid library CCmax
T23 chain: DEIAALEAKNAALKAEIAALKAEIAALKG

[24] = target: T24, 4H485-AA; assay: two-hybrid library CCmax
T24 chain: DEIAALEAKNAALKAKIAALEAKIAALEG

[25] = target: T25, 4H566-AA; assay: two-hybrid library CCmax
T25 chain: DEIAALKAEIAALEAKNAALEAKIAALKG

[26] = target: T26, 4H967-bN; assay: two-hybrid library CCNG1
T26 chain: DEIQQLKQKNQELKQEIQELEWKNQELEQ

[27] = target: T27, 4H63-AA; assay: two-hybrid library CCmax
T27 chain: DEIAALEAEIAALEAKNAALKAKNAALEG

[28] = target: T28, 4H429-AA; assay: two-hybrid library CCmax
T28 chain: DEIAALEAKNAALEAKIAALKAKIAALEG

[29] = target: T29, 4H454-AA; assay: two-hybrid library CCmax; conditions: mean of both orientations
T29 chain: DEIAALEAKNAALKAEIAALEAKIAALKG

[30] = target: T30, 4H48-AA; assay: two-hybrid library CCmax; conditions: mean of both orientations
T30 chain: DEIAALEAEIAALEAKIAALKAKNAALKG

interaction score [1]: 1.74 | interaction score ([2]; mean of both orientations): -0.00106
Binder: DEIAALKAKNAALEAEIAALKAEIAALKG [4H906-AA]

interaction score [3]: 1.29 | interaction score ([4]; mean of both orientations): -0.274 | interaction score [5]: -1.23 | interaction score ([6]; mean of both orientations): -1.53 | interaction score ([7]; mean of both orientations): -0.923 | interaction score ([8]; mean of both orientations): -0.443 | interaction score ([1]; mean of both orientations): -1.14 | interaction score ([2]; mean of both orientations): -1.15
Binder: DEIAALKAEIAALKAENAALKAKIAALEG [4H605-AA]

interaction score [9]: 1.51 | interaction score ([10]; mean of both orientations): -0.598 | interaction score ([11]; mean of both orientations): -1.47 | interaction score ([12]; mean of both orientations): -1.48 | interaction score [13]: 0.178 | interaction score ([14]; mean of both orientations): 1.66 | interaction score ([15]; mean of both orientations): -0.736 | interaction score ([16]; mean of both orientations): -1.22 | interaction score ([17]; mean of both orientations): -1.1 | interaction score ([18]; mean of both orientations): 1.71
Binder: DEIAALKAEIAALEAKNAALKAEIAALKG [4H570-AA]

interaction score [11]: 0.809 | interaction score ([12]; mean of both orientations): 1.86 | interaction score [13]: -1.31 | interaction score ([14]; mean of both orientations): -1.15 | interaction score ([15]; mean of both orientations): -1.65 | interaction score ([16]; mean of both orientations): -0.464 | interaction score ([17]; mean of both orientations): -0.472 | interaction score ([18]; mean of both orientations): -0.285
Binder: DEIAALKAENAALKAEIAALEAKIAALKG [4H710-AA]

interaction score [16]: 2.08 | interaction score ([17]; mean of both orientations): -1.17 | interaction score ([18]; mean of both orientations): -0.983
Binder: DEIAALKAKNAALEAEIAALKAKIAALEG [4H909-AA]

interaction score [6]: 1.68 | interaction score ([7]; mean of both orientations): -1.57 | interaction score ([8]; mean of both orientations): -1.27 | interaction score ([1]; mean of both orientations): -1.19 | interaction score ([2]; mean of both orientations): -1.51
Binder: DEIAALKAKIAALEAEIAALKAENAALKG [4H780-AA]

interaction score [18]: 2.24
Binder: DEIAALEAEIAALKAENAALKAKIAALKG [4H94-AA]

interaction score [19]: 0.95 | interaction score [20]: -0.333
Binder: DEIAQLKQKNAELEQEIAELKWEIAQLKQ [4H906-bA]

interaction score [21]: 0.339 | interaction score ([9]; mean of both orientations): 1.1 | interaction score ([10]; mean of both orientations): 0.302 | interaction score ([11]; mean of both orientations): -1.44 | interaction score ([12]; mean of both orientations): -1.07 | interaction score [13]: -0.504 | interaction score ([14]; mean of both orientations): 1.35 | interaction score ([15]; mean of both orientations): 1.78 | interaction score ([16]; mean of both orientations): -1.61 | interaction score ([17]; mean of both orientations): -1.56 | interaction score ([18]; mean of both orientations): -0.957
Binder: DEIAALKAEIAALEAENAALEAKNAALKG [4H536-AA]

interaction score [22]: -0.816
Binder: DEIAALKAKNAALKAEIAALKAENAALEG [4H971-AA]

interaction score [23]: 1.87 | interaction score ([24]; mean of both orientations): -1.76 | interaction score ([21]; mean of both orientations): -1.46 | interaction score ([9]; mean of both orientations): -0.947 | interaction score [10]: -1.64 | interaction score ([11]; mean of both orientations): 1.06 | interaction score ([12]; mean of both orientations): 1.1 | interaction score [13]: -1.44 | interaction score ([14]; mean of both orientations): 1.08 | interaction score ([15]; mean of both orientations): -1.67 | interaction score ([16]; mean of both orientations): -0.173 | interaction score ([17]; mean of both orientations): -0.663 | interaction score ([18]; mean of both orientations): -1.35
Binder: DEIAALEAKNAALKAEIAALKAEIAALKG [4H458-AA]

interaction score [4]: 1.57 | interaction score [5]: -0.0211 | interaction score ([6]; mean of both orientations): -1.59 | interaction score ([7]; mean of both orientations): -1.91 | interaction score ([8]; mean of both orientations): 1.21 | interaction score ([1]; mean of both orientations): -0.716 | interaction score ([2]; mean of both orientations): 1.05
Binder: DEIAALKAENAALEAKIAALEAKIAALKG [4H678-AA]

interaction score [7]: 1.84 | interaction score ([8]; mean of both orientations): -0.532 | interaction score ([1]; mean of both orientations): -1.42 | interaction score ([2]; mean of both orientations): -1.99
Binder: DEIAALKAKIAALEAENAALKAEIAALKG [4H794-AA]

interaction score [25]: 2.14 | interaction score ([3]; mean of both orientations): -0.184 | interaction score ([4]; mean of both orientations): -0.948 | interaction score [5]: -0.483 | interaction score ([6]; mean of both orientations): -2 | interaction score ([7]; mean of both orientations): -0.409 | interaction score ([8]; mean of both orientations): 1.95 | interaction score ([1]; mean of both orientations): -1.33 | interaction score ([2]; mean of both orientations): 1.6
Binder: DEIAALKAEIAALEAKNAALEAKIAALKG [4H566-AA]

interaction score [2]: 1.19
Binder: DEIAALKAKNAALKAKIAALEAEIAALEG [4H993-AA]

interaction score [26]: -0.749
Binder: DEIQQLKQKNQELKQEIQELEWKNQELEQ [4H967-bN]

interaction score [14]: 1.89 | interaction score ([15]; mean of both orientations): -0.0612 | interaction score ([16]; mean of both orientations): -1.47 | interaction score ([17]; mean of both orientations): -1.9 | interaction score ([18]; mean of both orientations): 1.79
Binder: DEIAALKAKIAALKAENAALEAEIAALKG [4H850-AA]

interaction score [27]: -1.93
Binder: DEIAALEAEIAALEAKNAALKAKNAALEG [4H63-AA]

interaction score [24]: 1.06 | interaction score ([21]; mean of both orientations): -1.29 | interaction score ([9]; mean of both orientations): -1.69 | interaction score ([10]; mean of both orientations): -1.15 | interaction score ([11]; mean of both orientations): 1.71 | interaction score [12]: 1.2 | interaction score [13]: -0.968 | interaction score ([14]; mean of both orientations): 1.97 | interaction score ([15]; mean of both orientations): -2.05 | interaction score ([16]; mean of both orientations): -0.153 | interaction score ([17]; mean of both orientations): -0.103 | interaction score ([18]; mean of both orientations): -1.46
Binder: DEIAALEAKNAALKAKIAALEAKIAALEG [4H485-AA]

interaction score [10]: 1.86 | interaction score ([11]; mean of both orientations): -0.399 | interaction score ([12]; mean of both orientations): -1.44 | interaction score [13]: -1.05 | interaction score ([14]; mean of both orientations): -0.0456 | interaction score ([15]; mean of both orientations): -1.48 | interaction score ([16]; mean of both orientations): -1.56 | interaction score ([17]; mean of both orientations): -1.41 | interaction score ([18]; mean of both orientations): -0.298
Binder: DEIAALKAEIAALKAKNAALEAKIAALEG [4H629-AA]

interaction score [8]: -0.685 | interaction score ([1]; mean of both orientations): -1.49 | interaction score ([2]; mean of both orientations): 1.82
Binder: DEIAALKAKIAALKAKNAALEAEIAALEG [4H881-AA]

interaction score [15]: -1.96 | interaction score ([16]; mean of both orientations): -1.73 | interaction score ([17]; mean of both orientations): -1.86 | interaction score ([18]; mean of both orientations): -0.169
Binder: DEIAALKAKIAALKAKNAALKAENAALEG [4H891-AA]

interaction score [28]: 0.468 | interaction score [29]: 1.83 | interaction score [30]: -0.728 | interaction score ([25]; mean of both orientations): 0.0626 | interaction score [3]: -1.54 | interaction score ([4]; mean of both orientations): 1.26 | interaction score [5]: -0.775 | interaction score ([6]; mean of both orientations): -1.7 | interaction score ([7]; mean of both orientations): -0.809 | interaction score ([8]; mean of both orientations): -0.143 | interaction score ([1]; mean of both orientations): -0.239 | interaction score [2]: 1.92
Binder: DEIAALEAKNAALEAKIAALKAKIAALEG [4H429-AA]

interaction score [13]: -1.44 | interaction score ([14]; mean of both orientations): -0.847 | interaction score ([15]; mean of both orientations): -1.51 | interaction score ([16]; mean of both orientations): -0.361 | interaction score ([17]; mean of both orientations): -0.807 | interaction score ([18]; mean of both orientations): -1.46
Binder: DEIAALKAENAALKAKIAALKAEIAALEG [4H745-AA]

interaction score [17]: 1.74 | interaction score ([18]; mean of both orientations): -1.34
Binder: DEIAALKAKNAALEAKIAALEAEIAALKG [4H930-AA]
